Experimental findings from EP4640708A1 (Chimagen Biosciences, Ltd, dated 2025) are described below.

Usually EC50 stands for the concentration giving half of the maximal effect. A low value points to higher potency in that assay.

The target in test [1] is T1, human GPRC5D (hGPRC5D) on cells (human, UniProt Q9NZD1 1-345).
T1 construct: whole, on cells; also called HEK293-hGPRC5D; CHOS-hGPRC5D
Description: flow cytometry, MM.1R cells naturally expressing GPRC5D.

The target in test [2] is T1, human GPRC5D (hGPRC5D) on cells. Description: flow cytometry, NCI-H929 cells naturally expressing GPRC5D. In general terms: A flow cytometer gives signals particle by particle.
For test [3] the target is unchanged. Description: flow cytometry, RPMI-8226 cells naturally expressing GPRC5D.

T1 sequence (Q9NZD1 whole entry): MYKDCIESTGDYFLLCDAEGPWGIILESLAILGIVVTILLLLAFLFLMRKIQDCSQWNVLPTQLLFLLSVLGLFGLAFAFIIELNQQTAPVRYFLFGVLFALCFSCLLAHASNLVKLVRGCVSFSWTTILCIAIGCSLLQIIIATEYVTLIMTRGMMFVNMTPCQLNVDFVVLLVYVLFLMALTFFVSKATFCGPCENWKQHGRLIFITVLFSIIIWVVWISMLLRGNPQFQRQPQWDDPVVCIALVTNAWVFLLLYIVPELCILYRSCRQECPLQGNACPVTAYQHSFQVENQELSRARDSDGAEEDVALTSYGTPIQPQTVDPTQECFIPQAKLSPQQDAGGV

B1: GC5B596 (antibody, V domains shown)
VH: QVQLVQSGAEVKKPGASVKVSCKASGYSFTGYTMNWVRQAPGQGLEWMGLINPYNSDTNYAQKLQGRVTMTTDTSTSTAYMELRSLRSDDTAVYYCARVALRVALDYWGQGTLVTVSS
VL: DIQMTQSPSSLSASVGDRVTITCKASQNVATHVGWYQQKPGKAPKRLIYSASYRYSGVPSRFSGSGSGTEFTLTISNLQPEDFATYYCQQYNRYPYTFGQGTKLEIKR
Regarding B1, the EC50 is 7.2 µg/mL in test [1], 9.52 µg/mL in test [2] and 14.3 µg/mL in test [3].
